Data: US20090280543A1, “REGIOSELECTIVE GLYCOSYLATION” (THE UNIVERSITY OF YORK, priority 2005, published 2009)

Key:
[1] = Removal of aglycones through adsorption by PVPP, analysed by RP-HPLC; assay type: physicochemical; conditions: ratio of compounds removed by PVPP over that in the untreated samples
Procedure: FIG. 7: Removal of different aglycones through adsorbtion by PVPP. The removal of a) trans-resveratrol (100%), b) esculetin (70%), c) daidzein (81%), and d) scopoletin (92%) by PVPP was analyzed by RP-HPLC. The efficiency was defined as the ratio of compounds removed by PVPP over that in the untreated samples;
(§1) Reverse-phase HPLC (RP-HPLC): RP-HPLC (Agilent 1100 system with Photodiode Array Detector, Agilent, U.K.) analysis was carried out using a Columbus 5-μ C18 column (150×3.20 mm, Phenomenex, U.K.). Glucosides were separated from their respective aglycones using a linear gradient of acetonitrile/0.1% formic acid (v/v) in H2O: 10-45% (trans-resveratrol/glucosides), 10-50% (daidzein/glucosides) at 0.5 mL/min over 20 min and monitored at 280 nm and 250 nm. Separation of scopoletin/scopolin and esculetin/esculin was carried out using the conditions described previously.^[11]
(§2) Stage 3, detection: 50 μl of the reaction mix were transferred to a 96-well filtration plate (Abgene, U.K.), mixed with an equal volume of PVPP aqueous suspension (25 g/L), shaken for 1 h at 25° C. before centrifugation (1000 g, 5 min). To each filtrate, 50 mM 2-morpholino-ethanesulfonic acid buffer (MES) (pH 7.0), ABTS™ (0.1 mM), peroxidase (2 U) and glucose oxidase (2 U) were added to a final volume of 125 μl. The formation of the green dye was monitored at 405 nm at 30 min using a plate reader (Bio-Tec Instruments Inc., U.S.A).

[2] = Whole-cell biocatalysis screen of GT library against the aglycone daidzein (RP-HPLC of glucosides); assay type: cell-based, E. coli; conditions: for regioselectivity for the 7-OH of daidzein: percentage of a regiospecific glucoside in the total amount of monoglucosides formed
Text: (§3) FIG. 3: Screening of a GT-library against the aglycone daidzein. a) The readings at A405 nm for D-glucose detection are presented in a colored code format. b) Examples of RP-HPLC trace of active and non-active GTs in whole-cell biocatalysis are illustrated. c) The regioselectivity of the active GTs towards daidzein, defined by the percentage of a regiospecific glucoside in the total amount of monoglucosides formed;
as §1
(§4) The cDNA library of 96 Arabidopsis thaliana GTs was subcloned into the multiple cloning site of the glutathione-S-transferase (GST) gene fusion vector pGEX-2T (Amersham Biosciences, U.K.) as described previously^[10] and transformed into the strain E. coli BL21 (DE3) for use in the screening method.
Stage 1, biotransformation: single colonies of the GT library grown on LB-agar plates overnight were transferred to individual wells in a 96-well bacterial culture plate containing 400 μl 2×YT medium (16 g/L bacto tryptone, 10 g/L yeast extract, 5 g/L NaCl) and 50 μg/mL ampicillin. The plate was covered with an adhesive plate seal (Abgene, U.K.) and incubated at 37° C. (250 rpm). The bacterial growth was monitored at 595 nm by a plate reader. After 4 h, the cultures had reached exponential phase. The plate was centrifuged (4000 g, 10 min), the supernatants discarded and cell pellets were resuspended in isopropyl-D-thiogalactopyranoside (0.1 mM), 2-(N-morpholino)ethanesulfonic acid (50 mM, pH 7.0), ampicillin (50 μg/mL), L-arabinose (10 g/L) and 500 µM of aglycone to a total whole-cell reaction volume of 400 μl/well. The 96-well plate was closed with a gas permeable adhesive plate seal, wrapped in alu foil for light protection and incubated at 25° C. (250 rpm). After 44 h the cultures were centrifuged (4000 g, 15 min) and the supernatants analyzed. […]
Stage 3, detection: 50 μl of the reaction mix were transferred to a 96-well filtration plate (Abgene, U.K.), mixed with an equal volume of PVPP aqueous suspension (25 g/L), shaken for 1 h at 25° C. before centrifugation (1000 g, 5 min). […] The formation of the green dye was monitored at 405 nm at 30 min using a plate reader (Bio-Tec Instruments Inc., U.S.A). […]

[3] = Whole-cell biocatalysis screen of GT library against the aglycone trans-resveratrol (RP-HPLC of glucosides); assay type: cell-based, E. coli; conditions: 500 µM aglycone, 44 h, 25° C.
Text: as §3, with “4:” for “3:”, “trans-resveratrol.” for “daidzein.”, “RP HPLC” for “RP-HPLC”, “non active” for “non-active”, “whole cell” for “whole-cell”, “trans-resveratrol,” for “daidzein,”
as §1, §4
Stage 1, biotransformation: single colonies of the GT library grown on LB-agar plates overnight were transferred to individual wells in a 96-well bacterial culture plate containing 400 μl 2×YT medium (16 g/L bacto tryptone, 10 g/L yeast extract, 5 g/L NaCl) and 50 μg/mL ampicillin. The plate was covered with an adhesive plate seal (Abgene, U.K.) and incubated at 37° C. (250 rpm). The bacterial growth was monitored at 595 nm by a plate reader. After 4 h, the cultures had reached exponential phase. The plate was centrifuged (4000 g, 10 min), the supernatants discarded and cell pellets were resuspended in isopropyl-D-thiogalactopyranoside (0.1 mM), 2-(N-morpholino)ethanesulfonic acid (50 mM, pH 7.0), ampicillin (50 μg/mL), L-arabinose (10 g/L) and 500 µM of aglycone to a total whole-cell reaction volume of 400 μl/well. The 96-well plate was closed with a gas permeable adhesive plate seal, wrapped in alu foil for light protection and incubated at 25° C. (250 rpm). After 44 h the cultures were centrifuged (4000 g, 15 min) and the supernatants analyzed.
Stage 2, cleavage: supernatants (100 μl) were transferred to a microtiter plate, 1 μl of β-glucosidase (1 U) was added and the plate incubated for 90 min at 37° C.
as §2
The utility of the screening method and regioselective biocatalysis by the GTs are illustrated in FIGS. 2 and 3. Thirteen GTs recognized daidzein and twenty-five GTs were identified that glycosylated trans-resveratrol. […] The mono- and di-glucosides of daidzein (4-6) and trans-resveratrol (8-10), eluting earlier than the two aglycones under the RP-HPLC conditions used (FIGS. 2b and 3b), were identified using external standards when available, or by electrospray liquid chromatography-mass spectrometry (LC-MS). ^1H-NMR analysis was used to confirm the structure of the monoglucosides (Table 1, SEQ ID NO: 1-107). […] Similarly, regioselective glycosylation of trans-resveratrol was observed. […] Only trace levels of a diglucoside were observed under the reaction conditions used.

**Q.** Which “removal by PVPP (efficiency)” value [1] does the source give for O=c1c(-c2ccc(O)cc2)coc2cc(O)ccc12 [daidzein] here?
**A.** The value was 81%.

**Q.** Which “removal by PVPP (efficiency)” value [1] does the source give for O=c1ccc2cc(O)c(O)cc2o1 [esculetin] here?
**A.** The value was 70%.

**Q.** For COc1cc2ccc(=O)oc2cc1O [scopoletin], which “removal by PVPP (efficiency)” value [1] is on record?
**A.** Its value is 92%.

**Q.** With Oc1ccc(/C=C/c2cc(O)cc(O)c2)cc1 [trans-resveratrol] as the molecule, how does the “removal by PVPP (efficiency)” value [1] read?
**A.** The value was 100%.

B1: GT 73B1: Arabidopsis thaliana glycosyltransferase, SEQ ID NO: 22 (nucleotide), 114 (amino acid) (protein, listed as Arabidopsis thaliana)
chain: MGTPVEVSKLHFLLFPFMAHGHMIPTLDMAKLFATKGAKSTILTTPLNAKLFFEKPIKSFNQDNPGLEDITIQILNFPCTELGLPDGCENTDFIFSTPDLNVGDLSQKFLLAMKYFEEPLEELLVTMRPDCLVGNMFFPWSTKVAEKFGVPRLVFHGTGYFSLCASHCIRLPKNVATSSEPFVIPDLPGDILITEEQVMETEEESVMGRFMKAIRDSERDSFGVLVNSFYELEQAYSDYFKSFVAKRAWHIGPLSLGNRKFEEKAERGKKASIDEHECLKWLDSKKCDSVIYMAFGTMSSFKNEQLIEIAAGLDMSGHDFVWVVNRKGSQEEKEDWLPEGFEEKTKGKGLIIRGWAPQVLILEHKAIGGFLTHCGWNSLLEGVAAGLPMVTWPVGAEQFYNEKLVTQVLKTGVSVGVKKMMQVVGDFISREKVEGAVREVMVGEERRKRAKELAEMAKNAVKEGGSSDLEVDRLMEELTLVKLQKEKV
**Q.** With B1 as the molecule, how does the “regioselectivity for the 7-OH of daidzein” value (“regioselectivity” below) [2] read?
**A.** The value was 100%.

B2: GT 72D1: Arabidopsis thaliana glycosyltransferase, SEQ ID NO: 18 (nucleotide), 113 (amino acid) (protein, listed as Arabidopsis thaliana)
chain: MDQPHALLVASPGLGHLIPILELGNRLSSVLNIHVTILAVTSGSSSPTETEAIHAAAARTICQITEIPSVDVDNLVEPDATIFTKMVVKMRAMKPAVRDAVKLMKRKPTVMIVDFLGTELMSVADDVGMTAKYVYVPTHAWFLAVMVYLPVLDTVVEGEYVDIKEPLKIPGCKPVGPKELMETMLDRSGQQYKECVRAGLEVPMSDGVLVNTWEELQGNTLAALREDEELSRVMKVPVYPIGPIVRTNQHVDKPNSIFEWLDEQRERSVVFVCLGSGGTLTFEQTVELALGLELSGQRFVWVLRRPASYLGAISSDDEQVSASLPEGFLDRTRGVGIVVTQWAPQVEILSHRSIGGFLSHCGWSSALESLTKGVPIIAWPLYAEQWMNATLLTEEIGVAVRTSELPSERVIGREEVASLVRKIMAEEDEEGQKIRAKAEEVRVSSERAWSKDGSSYNSLFEWAKRCYLVP
**Q.** With B2 as the molecule, how does the “regioselective glycosylation of trans-resveratrol (position)” value [3] read?
**A.** Its value is “specific for the 3-OH position”.

B3: GT 73B2: Arabidopsis thaliana glycosyltransferase, SEQ ID NO: 23 (nucleotide), 115 (amino acid) (protein, listed as Arabidopsis thaliana)
chain: MGSDHHHRKLHVMFFPFMAYGHMIPTLDMAKLFSSRGAKSTILTTSLNSKILQKPIDTFKNLNPGLEIDIQIFNFPCVELGLPEGCENVDFFTSNNNDDKNEMIVKFFFSTRFFKDQLEKLLGTTRPDCLIADMFFPWATEAAGKFNVPRLVFHGTGYFSLCAGYCIGVHKPQKRVASSSEPFVIPELPGNIVITEEQIIDGDGESDMGKFMTEVRESEVKSSGVVLNSFYELEHDYADFYKSCVQKRAWHIGPLSVYNRGFEEKAERGKKANIDEAECLKWLDSKKPNSVIYVSFGSVAFFKNEQLFEIAAGLEASGTSFIWVVRKTKDDREEWLPEGFEERVKGKGMIIRGWAPQVLILDHQATGGFVTHCGWNSLLEGVAAGLPMVTWPVGAEQFYNEKLVTQVLRTGVSVGASKHMKVMMGDFISREKVDKAVREVLAGEAAEERRRRAKKLAAMAKAAVEEGGSSFNDLNSFMEEFSS
**Q.** Which “regioselectivity” value [2] does the source give for B3 here?
**A.** The value was 100%.

B4: GT 84A1: Arabidopsis thaliana glycosyltransferase, SEQ ID NO: 81 (nucleotide), 130 (amino acid) (protein, listed as Arabidopsis thaliana)
chain: MVFETCPSPNPIHVMLVSFQGQGHVNPLLRLGKLIASKGLLVTFVTTELWGKKMRQANKIVDGELKPVGSGSIRFEFFDEEWAEDDDRRADFSLYIAHLESVGIREVSKLVRRYEEANEPVSCLINNPFIPWVCHVAEEFNIPCAVLWVQSCACFSAYYHYQDGSVSFPTETEPELDVKLPCVPVLKNDEIPSFLHPSSRFTGFRQAILGQFKNLSKSFCVLIDSFDSLEQEVIDYMSSLCPVKTVGPLFKVARTVTSDVSGDICKSTDKCLEWLDSRPKSSVVYISFGTVAYLKQEQIEEIAHGVLKSGLSFLWVIRPPPHDLKVETHVLPQELKESSAKGKGMIVDWCPQEQVLSHPSVACFVTHCGWNSTMESLSSGVPVVCCPQWGDQVTDAVYLIDVFKTGVRLGRGATEERVVPREEVAEKLLEATVGEKAEELRKNALKWKAEAEAAVAPGGSSDKNFREFVEKLGAGVTKTKDNGY
**Q.** Which “regioselectivity” value [2] does the source give for B4 here?
**A.** The value was 100%.

B5: GT 73C4: Arabidopsis thaliana glycosyltransferase, SEQ ID NO: 30 (nucleotide), 121 (amino acid) (protein, listed as Arabidopsis thaliana)
chain: MASEKSHKVHPPLHFILFPFMAQGHMIPMIDIARLLAQRGATVTIVTTRYNAGRFENVLSRAMESGLPINIVHVNFPYQEFGLPEGKENIDSYDSMELMVPFFQAVNMLEDPVMKLMEEMKPRPSCIISDLLLPYTSKIARKFSIPKIVFHGTGCFNLLCMHVLRRNLEILKNLKSDKDYFLVPSFPDRVEFTKPQVPVETTASGDWKAFLDEMVEAEYTSYGVIVNTFQELEPAYVKDYTKARAGKVWSIGPVSLCNKAGADKAERGNQAAIDQDECLQWLDSKEDGSVLYVCLGSICNLPLSQLKELGLGLEKSQRSFIWVIRGWEKYNELYEWMMESGFEERIKERGLLIKGWSPQVLILSHPSVGGFLTHCGWNSTLEGITSGIPLITWPLFGDQFCNQKLVVQVLKAGVSAGVEEVMKWGEEEKIGVLVDKEGVKKAVEELMGASDDAKERRRRVKELGESAHKAVEEGGSSHSNITYLLQDIMQQVKSKN
**Q.** With B5 as the molecule, how does the “daidzein glucosides formed / positions glycosylated” value ([2]; whole-cell biocatalysis, 500 µM aglycone, 44 h, 25° C.) read?
**A.** Its value is “produced the diglucoside in addition to the monoglucosides”.

B6: GT 71C4: Arabidopsis thaliana glycosyltransferase, SEQ ID NO: 10 (nucleotide), 110 (amino acid) (protein, listed as Arabidopsis thaliana)
chain: MVKETELIFIPVPSTGHILVHIEFAKRLINLDHRIHTITILNLSSPSSPHASVFARSLIASQPKIRLHDLPPIQDPPPFDLYQRAPEAYIVKLIKKNTPLIKDAVSSIVASRRGGSDSVQVAGLVLDLFCNSLVKDVGNELNLPSYIYLTCNARYLGMMKYIPDRHRKIASEFDLSSGDEELPVPGFINAIPTKFMPPGLFNKEAYEAYVELAPRFADAKGILVNSFTELEPHPFDYFSHLEKFPPVYPVGPILSLKDRASPNEEAVDRDQIVGWLDDQPESSVVFLCFGSRGSVDEPQVKEIARALELVGCRFLWSIRTSGDVETNPNDVLPEGFMGRVAGRGLVCGWAPQVEVLAHKAIGGFVSHCGWNSTLESLWFGVPVATWPMYAEQQLNAFTLVKELGLAVDLRMDYVSSRGGLVTCDEIARAVRSLMDGGDEKRKKVKEMADAARKALMDGGSSSLATARFIAELFEDGSSC
**Q.** For B6, which “regioselective glycosylation of trans-resveratrol (position)” value [3] is on record?
**A.** Its value is “specific for the 3-OH position”.
